Patent US20250269027A1

Target: Mesothelin (MSLN) expressed on target cells (human) (UniProt Q13421)
Assay: cell-based or functional assay

## m912 benchmark MSLN CAR (scFv)
  EC50 (functional sensitivity), Jurkat NFAT-luciferase, MSLN molecules/cell on HEK293 cells (molecules/cell): 80000
